± gives the uncertainty stated by the source.
B1: Zinc finger MYM-type protein 3, residues 405 to 444; numbered along this chain, Q14202 (parent)
chain: DATRCSICQKTGEVLHEVSNGSVVHRLCSDSCFSKFRANK
B2: Kinesin-like protein KIF16B, residues 1213 to 1273; numbered along this chain, Q96L93 (parent)
chain: ETWTVFRRYSRFREMHKTLKLKYAELAALEFPPKKLFGNKDERVIAERRSHLEKYLRDFFS

Variants of: B1
Experiment: abundance fitness (aPCA) (normalised: wild type 0, dead -1); higher = more abundant; growth selection in yeast, the domain comes from the species named
Conditions: Homo sapiens

Abundance fitness of substitutions, site by site:
K40: V 0.112 ± 0.1 | F -0.128 ± 0.15 | Y -0.072 ± 0.45 | L -0.095 ± 0.11 | I 0.012 ± 0.072 | S 0.119 ± 0.086 | T 0.138 ± 0.066 | H 0.222 ± 0.08 | A -0.047 ± 0.11 | R 0.023 ± 0.068 | N 0.15 ± 0.13 | C 0.205 ± 0.16 | P -0.12 ± 0.17 | E 0.077 ± 0.09 | G 0.211 ± 0.064 | W -0.116 ± 0.14
L27: P -0.458 ± 0.078 | V -0.22 ± 0.056 | R -0.393 ± 0.055 | Y -0.056 ± 0.1 | D -0.569 ± 0.092 | N -0.618 ± 0.096 | I -0.129 ± 0.12 | E -0.352 ± 0.067 | F -0.019 ± 0.15 | A -0.393 ± 0.059 | M 0.033 ± 0.073 | Q -0.294 ± 0.07 | C 0.032 ± 0.07 | W -0.205 ± 0.056 | K -0.317 ± 0.069 | G -0.331 ± 0.053 | H -0.382 ± 0.08 | S -0.447 ± 0.062
S34: P -0.114 ± 0.064 | Q 0.382 ± 0.083 | L -0.023 ± 0.061 | Y -1.01 ± 0.24 | G 0.137 ± 0.053 | A 0.203 ± 0.056 | R 0.076 ± 0.054 | K 0.206 ± 0.068 | I -0.126 ± 0.12 | F -0.18 ± 0.087 | T 0.125 ± 0.06 | W -0.187 ± 0.075 | C -0.729 ± 0.098 | E 0.32 ± 0.062 | D 0.203 ± 0.1 | M -0.039 ± 0.17
V24: T -0.038 ± 0.061 | Y -0.133 ± 0.072 | M 0.048 ± 0.065 | L -0.077 ± 0.051 | W -0.292 ± 0.066
H25: E 0.205 ± 0.058 | G -0.164 ± 0.053 | M -0.129 ± 0.066 | L -0.266 ± 0.056 | T -0.046 ± 0.056 | N -0.031 ± 0.081 | P -0.363 ± 0.073 | R -0.318 ± 0.054 | S -0.138 ± 0.056 | V -0.507 ± 0.059 | W -0.247 ± 0.061 | Y -0.385 ± 0.097 | Q -0.038 ± 0.065 | K -0.006 ± 0.061 | A -0.122 ± 0.055 | I -0.216 ± 0.076
C28: G -0.623 ± 0.054 | E -0.576 ± 0.069 | L -0.886 ± 0.062 | P -0.639 ± 0.083 | A -0.594 ± 0.058 | T -0.853 ± 0.094 | I -0.95 ± 0.18 | V -0.808 ± 0.063 | R -0.873 ± 0.061 | W -1.02 ± 0.08 | F -1.09 ± 0.12 | N -0.765 ± 0.11 | D -0.529 ± 0.081 | Q -0.809 ± 0.082 | K -0.823 ± 0.097 | Y -0.85 ± 0.12 | H -0.733 ± 0.086
C32: N -0.808 ± 0.1 | L -0.676 ± 0.076 | I -0.587 ± 0.19 | K -0.727 ± 0.097 | D -0.301 ± 0.1 | F -0.968 ± 0.16 | T -0.565 ± 0.1 | H -0.59 ± 0.11 | S -0.645 ± 0.079 | Q -0.345 ± 0.079 | V -0.742 ± 0.068 | R -0.832 ± 0.071 | P -0.763 ± 0.13 | G -0.576 ± 0.054
R26: G -0.117 ± 0.053 | T -0.048 ± 0.065 | Q 0.097 ± 0.059 | W -0.21 ± 0.061 | K 0.013 ± 0.074 | A -0.02 ± 0.052 | C -0.312 ± 0.1 | E -0.283 ± 0.063 | L -0.196 ± 0.055 | Y -0.339 ± 0.084 | H -0.074 ± 0.062 | M -0.12 ± 0.078 | P -0.074 ± 0.066 | F -0.177 ± 0.075 | D -0.606 ± 0.16 | I -0.173 ± 0.073 | N -0.195 ± 0.077
N39: M 0.048 ± 0.07 | W -0.192 ± 0.076 | I -0.022 ± 0.089 | V 0.058 ± 0.066 | G 0.017 ± 0.058 | R 0.081 ± 0.055 | D -0.228 ± 0.13 | E 0.128 ± 0.076 | L 0.037 ± 0.065 | T 0.112 ± 0.065 | C -0.319 ± 0.11 | A 0.015 ± 0.062 | S 0.003 ± 0.067 | K 0.167 ± 0.083 | H -0.212 ± 0.087 | P 0.043 ± 0.073 | Q 0.29 ± 0.078
R37: Q 0.106 ± 0.069 | H 0.137 ± 0.086 | P -0.18 ± 0.079 | V -0.23 ± 0.057 | F -0.506 ± 0.088 | N 0.135 ± 0.11 | T 0.043 ± 0.064 | L -0.304 ± 0.058 | E 0.395 ± 0.061 | K 0.199 ± 0.067 | D 0.143 ± 0.08 | S 0.048 ± 0.057 | I -0.512 ± 0.13 | C -0.093 ± 0.071 | A -0.003 ± 0.056 | W -0.288 ± 0.07 | Y -0.283 ± 0.15
D30: R -0.231 ± 0.056 | N -0.721 ± 0.31 | H -0.425 ± 0.15 | L -0.398 ± 0.057 | F -0.632 ± 0.13 | M -0.28 ± 0.088 | G -0.269 ± 0.056 | T -0.219 ± 0.066 | Y -0.857 ± 0.34 | S -0.387 ± 0.073 | I -0.734 ± 0.21 | W -1.07 ± 0.12 | Q -0.079 ± 0.096 | V -0.384 ± 0.062 | P -0.371 ± 0.1 | C -1.66 ± 0.31 | K -0.109 ± 0.096 | E -0.041 ± 0.066
F36: R -0.236 ± 0.054 | G -0.206 ± 0.051 | Q 0.002 ± 0.074 | V -0.085 ± 0.066 | Y -0.22 ± 0.089 | E 0.029 ± 0.063 | A 0.042 ± 0.056 | M -0.296 ± 0.39 | N -0.772 ± 0.14 | S -0.178 ± 0.064 | D -0.082 ± 0.084 | T -0.176 ± 0.07 | K -0.426 ± 0.1 | H -0.053 ± 0.1 | W 0.147 ± 0.057 | I -0.061 ± 0.072
S29: D -0.404 ± 0.076 | Y -0.936 ± 0.24 | T -0.771 ± 0.1 | A -0.363 ± 0.061 | F -1.05 ± 0.14 | P -0.487 ± 0.074 | K -0.602 ± 0.09 | W -0.669 ± 0.07 | I -0.857 ± 0.13 | L -0.755 ± 0.067 | G -0.277 ± 0.054 | V -0.596 ± 0.062 | M -0.622 ± 0.086 | C -0.591 ± 0.077 | Q -0.427 ± 0.087 | H -0.683 ± 0.16 | R -0.684 ± 0.062 | E -0.325 ± 0.063
F33: P -0.186 ± 0.074 | S -0.015 ± 0.058 | T -0.072 ± 0.065 | Y -0.094 ± 0.1 | I -0.067 ± 0.11 | D -0.016 ± 0.081 | N 0.01 ± 0.15 | K 0.03 ± 0.067 | C -0.11 ± 0.15 | G -0.044 ± 0.05 | L 0.256 ± 0.054 | M 0.187 ± 0.065 | W 0.154 ± 0.06 | A 0.134 ± 0.055 | E 0.175 ± 0.077 | H 0.073 ± 0.095 | R 0.106 ± 0.051
K35: H -0.03 ± 0.084 | Y -0.175 ± 0.26 | A 0.119 ± 0.054 | W -0.84 ± 0.084 | N 0.03 ± 0.34 | P -0.471 ± 0.074 | S 0.02 ± 0.058 | C -0.959 ± 0.11 | D 0.053 ± 0.076 | Q 0.146 ± 0.067 | E 0.166 ± 0.056 | T 0.058 ± 0.066 | F 0.052 ± 0.19 | M 0.078 ± 0.07 | L -0.127 ± 0.055
S31: L -0.022 ± 0.059 | Q 0.042 ± 0.075 | F -0.166 ± 0.083 | G 0.055 ± 0.052 | H -0.16 ± 0.093 | V -0.032 ± 0.056 | T 0.027 ± 0.082 | I 0.064 ± 0.15 | N -0.089 ± 0.095 | P -0.025 ± 0.072 | A -0.063 ± 0.058 | C -0.185 ± 0.18 | M -0.006 ± 0.072 | W -0.218 ± 0.066 | K 0.081 ± 0.086 | R 0.047 ± 0.053 | D 0.094 ± 0.09
A38: N -0.461 ± 0.23 | V -0.233 ± 0.071 | P -0.354 ± 0.068 | K -0.228 ± 0.086 | Y -0.338 ± 0.36 | G 0.011 ± 0.05 | Q -0.072 ± 0.064 | M -0.033 ± 0.094 | D -0.139 ± 0.076 | W -0.353 ± 0.059 | H -0.524 ± 0.15 | E 0.015 ± 0.059 | L -0.265 ± 0.078 | R -0.199 ± 0.052 | I -0.215 ± 0.079 | F -0.259 ± 0.16 | S -0.2 ± 0.061

Variants of: B2
Experiment: as above
Conditions: Homo sapiens

Abundance fitness of substitutions, site by site:
W3: M -0.274 ± 0.094 | R -0.232 ± 0.06 | K -0.051 ± 0.092 | S -0.152 ± 0.13 | C -0.761 ± 0.39 | T -0.432 ± 0.24 | D -0.022 ± 0.12 | G 0.039 ± 0.072 | Y -0.424 ± 0.22 | A -0.66 ± 0.14 | I -0.655 ± 0.18 | F 0.086 ± 0.15 | Q -0.771 ± 0.24 | L -0.45 ± 0.087 | N -0.024 ± 0.13 | V -0.521 ± 0.19 | E -0.088 ± 0.13
T4: K -0.15 ± 0.058 | V -0.319 ± 0.05 | G 0.085 ± 0.046 | F -0.124 ± 0.057 | N 0.308 ± 0.045 | Q 0.119 ± 0.056 | Y -0.139 ± 0.058 | I -0.23 ± 0.079 | H -0.406 ± 0.077 | W 0.033 ± 0.062 | L -0.318 ± 0.045 | P -0.102 ± 0.049 | M -0.077 ± 0.065 | C 0.079 ± 0.055 | A -0.087 ± 0.057 | R -0.256 ± 0.043 | S 0.109 ± 0.029 | D 0.178 ± 0.091 | E 0.223 ± 0.053
T2: N -0.286 ± 0.14 | M -0.538 ± 0.09 | Y -0.352 ± 0.42 | P 0.047 ± 0.094 | A -0.687 ± 0.3 | V -0.165 ± 0.14 | C -0.5 ± 0.47 | L 0.274 ± 0.19 | E -0.18 ± 0.24 | I 0.085 ± 0.12 | G -0.721 ± 0.28 | K -0.409 ± 0.14 | Q -0.541 ± 0.27 | W -0.146 ± 0.096 | S -0.523 ± 0.12
V5: A 0.161 ± 0.048 | G 0.22 ± 0.06 | D -0.156 ± 0.11 | E -0.486 ± 0.12
E1: G -0.62 ± 0.39 | W -0.421 ± 0.27 | M -0.343 ± 0.48 | L -0.75 ± 0.38 | K -0.26 ± 0.14 | D -0.001 ± 0.12 | N -0.153 ± 0.42 | V -0.846 ± 0.21
